Among the data in article PMC11358308 (2024) are Kd values, retold here.

Residue numbers refer to the chain shown, from its start. In names and notes the source's numbering stands.

For test [1], the target named is cynomolgus BCMA (cynomolgus monkey). Briefly: SPR. For orientation: SPR reads the build-up and loss of mass on a sensor chip optically.
Test [2] addresses T1, human B-cell maturation antigen (BCMA), extracellular domain (human, UniProt Q02223 1-54).
T1 chain: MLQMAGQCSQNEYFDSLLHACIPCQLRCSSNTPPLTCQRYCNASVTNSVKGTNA
In words: SPR.

Sequence of cynomolgus BCMA (cynomolgus monkey) (chain, as listed by the source): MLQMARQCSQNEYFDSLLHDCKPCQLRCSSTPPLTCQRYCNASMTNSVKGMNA

B1: J22.9-xi, chimaeric mouse/human IgG (antibody, V domains shown)
VH: QVQLQQSGGGLVQPGGSLKLSCAASGIDFSRYWMSWVRRAPGKGLEWIGEINPDSSTINYAPSLKDKFIISRDNAKNTLYLQMSKVRSEDTALYYCASLYYDYGDAMDYWGQGTSVTVSS
VL: DIVMTQSQRFMTTSVGDRVSVTCKASQSVDSNVAWYQQKPRQSPKALIFSASLRFSGVPARFTGSGSGTDFTLTISNLQSEDLAEYFCQQYNNYPLTFGAGTKLELK
The term Kd denotes a measure of binding affinity in units of concentration. As to B1, the affinity in test [1], expressed as Kd, was 2.7 nM.

B2: J22.9-FSY, humanized and CDR-optimized IgG (antibody, V domains shown)
VH: EVQLVESGGGLVQPGGSLRLSCAASGFTFSRYWFSWVRQAPGKGLVWVGEINPSSSTINYAPSLKDKFTISRDNAKNTLYLQMNSLRAEDTAVYYCASLYYDYGDAYDYWGQGTLVTVSS
VL: EIVMTQSPATLSVSPGERATLSCKASQSVESNVAWYQQKPGQAPRALIYSASLRFSGIPARFSGSGSGTEFTLTISSLQSEDFAVYYCQQYNNYPLTFGAGTKLELK
Consider B2, for which the figures for the Kd in test [2] and in test [1] were 2.2 nM and 20 nM, respectively.

B3: J22.9-H, humanized IgG (all humanizing substitutions in VH and VL except A46L in VL) (antibody, V domains shown)
VH: B2 VH with F34M, S54D, Y107M
VL: B2 VL with E30D
B3 showed a Kd in test [1] of 200 nM.

B4: J22.9-ISY, humanized and CDR-optimized IgG (antibody, V domains shown)
VH: B2 VH with F34I
VL: B2 VL
With B4, the Kd in test [2] was found to be 2 nM; in test [1] it was 17 nM.
